# From paper PMC5756042, “Molecular Defects of the Disease-Causing Human Arrestin-1 C147F Mutant” (Investigative Ophthalmology & Visual Science, 2018)
# Molecular target: T1, light-activated unphosphorylated rhodopsin (bovine, UniProt P02699 1-348)
# T1 construct: source: purified from cow eyes; unphosphorylated; rhodopsin-containing membranes
# Assay: radioligand binding; direct binding assay: 1 nM radiolabelled arrestin-1 (50 fmol) with 0.3 μg P-Rh* or Rh* (0.22 μM) in 50 μL of 50 mM Tris-HCl pH 7.4, 100 mM potassium acetate, 1 mM EDTA, 1 mM dithiothreitol, 5 minutes at 37°C under room light; bound and free separated at 4°C on Sepharose 2B-CL; scintillation counting; nonspecific binding subtracted
# Details: one partner purified
# T1 sequence (P02699 whole entry): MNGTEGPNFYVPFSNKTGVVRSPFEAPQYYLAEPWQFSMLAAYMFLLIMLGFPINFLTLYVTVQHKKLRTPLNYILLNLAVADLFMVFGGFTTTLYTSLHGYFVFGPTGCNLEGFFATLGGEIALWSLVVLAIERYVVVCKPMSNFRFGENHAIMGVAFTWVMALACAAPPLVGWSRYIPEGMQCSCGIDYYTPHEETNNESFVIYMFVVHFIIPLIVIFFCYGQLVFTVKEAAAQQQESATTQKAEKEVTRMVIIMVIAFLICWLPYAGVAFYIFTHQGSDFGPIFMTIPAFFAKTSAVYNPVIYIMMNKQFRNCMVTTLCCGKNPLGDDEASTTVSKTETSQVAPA
row,fold increase of Rh* binding against WT [fold],Binder
1,> 2,"human arrestin-1 C147F mutant (natural protein, UniProt P10523 1-405, looked up, labeled with 14C-Leu and 3H-Leu, human arrestin-1 with the disease-causing C147F mutation (dominant retinitis pigmentosa in humans), transcription construct in pGEM2; The mutation occurs in human patients; here it was introduced into the transcription construct by PCR; also called CF; source: in vitro translated (rabbit reticulocyte lysate), radiolabelled) MAASGKTSKSEPNHVIFKKISRDKSVTIYLGNRDYIDHVSQVQPVDGVVLVDPDLVKGKKVYVTLTCAFRYGQEDIDVIGLTFRRDLYFSRVQVYPPVGAASTPTKLQESLLKKLGSNTYPFLLTFPDYLPCSVMLQPAPQDSGKSFGVDFEVKAFATDSTDAEEDKIPKKSSVRLLIRKVQHAPLEMGPQPRAEAAWQFFMSDKPLHLAVSLNKEIYFHGEPIPVTVTVTNNTEKTVKKIKAFVEQVANVVLYSSDYYVKPVAMEEAQEKVPPNSTLTKTLTLLPLLANNRERRGIALDGKIKHEDTNLASSTIIKEGIDRTVLGILVSYQIKVKLTVSGFLGELTSSEVATEVPFRLMHPQPEDPAKESYQDANLVFEEFARHNLKDAGEAEEGKRDKNDVDE"
2,> 2,"human arrestin-1 C147L mutant (natural protein, UniProt P10523 1-405, looked up, labeled with 14C-Leu and 3H-Leu, source: in vitro translated (rabbit reticulocyte lysate), radiolabelled) MAASGKTSKSEPNHVIFKKISRDKSVTIYLGNRDYIDHVSQVQPVDGVVLVDPDLVKGKKVYVTLTCAFRYGQEDIDVIGLTFRRDLYFSRVQVYPPVGAASTPTKLQESLLKKLGSNTYPFLLTFPDYLPCSVMLQPAPQDSGKSLGVDFEVKAFATDSTDAEEDKIPKKSSVRLLIRKVQHAPLEMGPQPRAEAAWQFFMSDKPLHLAVSLNKEIYFHGEPIPVTVTVTNNTEKTVKKIKAFVEQVANVVLYSSDYYVKPVAMEEAQEKVPPNSTLTKTLTLLPLLANNRERRGIALDGKIKHEDTNLASSTIIKEGIDRTVLGILVSYQIKVKLTVSGFLGELTSSEVATEVPFRLMHPQPEDPAKESYQDANLVFEEFARHNLKDAGEAEEGKRDKNDVDE"
3,> 2,"human arrestin-1 C147I mutant (natural protein, UniProt P10523 1-405, looked up, labeled with 14C-Leu and 3H-Leu, source: in vitro translated (rabbit reticulocyte lysate), radiolabelled) MAASGKTSKSEPNHVIFKKISRDKSVTIYLGNRDYIDHVSQVQPVDGVVLVDPDLVKGKKVYVTLTCAFRYGQEDIDVIGLTFRRDLYFSRVQVYPPVGAASTPTKLQESLLKKLGSNTYPFLLTFPDYLPCSVMLQPAPQDSGKSIGVDFEVKAFATDSTDAEEDKIPKKSSVRLLIRKVQHAPLEMGPQPRAEAAWQFFMSDKPLHLAVSLNKEIYFHGEPIPVTVTVTNNTEKTVKKIKAFVEQVANVVLYSSDYYVKPVAMEEAQEKVPPNSTLTKTLTLLPLLANNRERRGIALDGKIKHEDTNLASSTIIKEGIDRTVLGILVSYQIKVKLTVSGFLGELTSSEVATEVPFRLMHPQPEDPAKESYQDANLVFEEFARHNLKDAGEAEEGKRDKNDVDE"
